Measured values published in article PMC3273594.

T1: Wild-type Phospholamban, P61014
T1 chain: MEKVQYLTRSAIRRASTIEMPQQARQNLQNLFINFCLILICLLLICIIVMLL


How the values were obtained:
[1] = molecular target: TOAC labeled wild-type PLB; assay: SDS-PAGE
[2] = molecular target: T1, Wild-type Phospholamban, P61014; assay: SDS-PAGE; details: remark: other sources report otherwise

Row | stoichiometry N [1] | stoichiometry N [2] | Molecule
1 | 5 |  | TOAC labeled wild-type PLB
2 |  | 5 | Wild-type Phospholamban, P61014 1-52 (natural protein) MEKVQYLTRSAIRRASTIEMPQQARQNLQNLFINFCLILICLLLICIIVMLL
